Test [1] addresses T1, human CXCL13 (human, UniProt O43927 23-109).
T1 construct: also called huCXCL13; rhCXCL13
T1 sequence (looked up): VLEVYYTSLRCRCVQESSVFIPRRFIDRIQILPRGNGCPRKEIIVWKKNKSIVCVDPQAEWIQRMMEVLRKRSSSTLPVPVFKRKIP
Briefly: SPR Biacore, off-rate ranking of Fabs. A general note: In SPR one partner is held on a chip, and binding of the other changes the refractive index at the surface.

In test [2] the target is T1, human CXCL13. As to the kind of experiment: cell-based blocking assay, CXCL13 to CXCR5 cells. In outline:
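To obtain IC50, a titration of humanized Fabs was tested against human CXCL13 binding to CHO-K1 cells expressing CXCR5. The cells (5×10⁴/well) were plated overnight at 37° C, fixed with 2% PFA and blocked with 1% BSA in PBST, then given 100 μl of Fab mixed with an equal volume of 0.3 μg/ml CXCL13 after a 30 min pre-incubation at room temperature. After 30 min on the cells and three PBST washes, bound CXCL13 was captured with 3 μg/ml human anti-CXCL13 antibody, detected with anti-human Fc-HRP and read at 450 nm.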

Test [3] has as its target T1, human CXCL13. As to the kind of experiment: ELISA binding, Fab.
Test [4] concerns the target T1, human CXCL13. Briefly: SPR Biacore 8K, Fab over immobilised CXCL13. The gist of the method:
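Fabs (0–16 nM series) flowed at 30 μl/min over CXCL13 amine-coupled to CM5 (~30 RU) on Biacore 8K, 600 s dissociation. Running buffer HEPES 10 mM, NaCl 150 mM, EDTA 3 mM, 0.05% Tween-20, pH 7.4; regeneration with 10 mM glycine-HCl pH 2.0.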

Test [5] deals with T2, human CXCL13 F20A (human, UniProt O43927 23-109).
T2 construct: mature; 87 residues fits the mature chain
T2 sequence (looked up): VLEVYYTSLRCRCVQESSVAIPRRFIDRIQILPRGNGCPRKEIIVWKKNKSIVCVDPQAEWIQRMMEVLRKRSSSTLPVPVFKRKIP
Briefly: alanine scan, flow cytometry. How it is done:
(§1) Cells were transfected with different WT construct or […] mutant construct which each amino acid was mutant to alanine, totally 87 amino acids. Then, binding of the test Fab to each mutant clone in the alanine scanning library was determined, in duplicate, by high-throughput flow cytometry. For each point, background fluorescence was subtracted from the raw data, which were then normalized to Fab reactivity with WT target protein. For each mutant clone, the mean binding value was plotted as a function of expression (represented by control reactivity). To identify preliminary primary critical clones (red circles), a threshold (dashed lines) of >70% WT binding to control Ab and <20% WT binding to test Fab was applied.

In the next test the target is T3, human CXCL13 P22A (human, UniProt O43927 23-109).
T3 construct: mature; 87 residues fits the mature chain
T3 sequence (looked up): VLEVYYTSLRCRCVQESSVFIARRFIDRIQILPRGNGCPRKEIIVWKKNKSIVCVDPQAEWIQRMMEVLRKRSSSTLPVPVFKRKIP
Briefly: alanine scan, flow cytometry on transfected cells. On the procedure:
as §1
(§2) We draw the crystal structure diagram in the FIG. 8B, and the critical residues for 64C10G1 Fab binding were visualized and shown on this crystal structure.

In a further test the target is T4, human CXCL13 F25A (human, UniProt O43927 23-109).
T4 construct: mature; 87 residues fits the mature chain
T4 sequence (looked up): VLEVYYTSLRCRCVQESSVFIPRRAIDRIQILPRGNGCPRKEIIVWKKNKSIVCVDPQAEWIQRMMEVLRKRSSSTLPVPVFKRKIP
Briefly: alanine scan, flow cytometry on transfected cells. How it is done:
as §1, §2

The target of test [6] is T2, human CXCL13 F20A. As to the kind of experiment: alanine scan, flow cytometry on transfected cells. How it is done: as §1, §2
For another test, the target named is T5, human CXCL13 R24A (human, UniProt O43927 23-109).
T5 construct: mature; 87 residues fits the mature chain
T5 sequence (looked up): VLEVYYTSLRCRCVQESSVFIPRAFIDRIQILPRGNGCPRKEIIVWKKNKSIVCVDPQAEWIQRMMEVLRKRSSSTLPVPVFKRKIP
As to the kind of experiment: alanine scan, flow cytometry on transfected cells. How it is done: as §1, §2
In general terms: A flow cytometer gives signals particle by particle.

The target in test [7] is T1, human CXCL13. Briefly: SPR Biacore 8K, Fab over immobilised CXCL13. The gist of the method:
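Surface plasmon resonance: CXCL13 amine-coupled to CM5 chip at ~250 RU, humanized Fabs injected at 0–20 nM, 30 μl/min, in HEPES-buffered saline with EDTA and Tween-20, pH 7.4. Dissociation 600 s; regeneration with glycine-HCl pH 2.0.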
The source holds these as a separate data set.

Test [8] concerns the target T1, human CXCL13. As to the kind of experiment: ELISA, coated antigen, chimeric IgG1. How it is done:
(§3) Elisa based binding assay. […] Briefly, 100 μl of human CXCL13 or cynomolgus CXCL13 was coated at 0.5 μg/ml overnight and then blocked by 200 μl of 5% BSA in PBS. Serial diluted antibodies were incubated with the coated antigen for 30 min at RT. The resulting plates were washed with PBS/T and incubated with goat anti-human IgG Fc-HRP for 30 min RT. The plates were developed with TMB substrate after washing with 1×PBST for 5 times and reaction stopped with 1N HCl and analyzed by spectrophotometer at OD 450-630 nm.
In general terms: ELISA stands for enzyme-linked immunosorbent assay.

For another test, the target named is T6, cynomolgus CXCL13 (cynomolgus, UniProt H6WS58 23-109).
T6 construct: also called cynoCXCL13; Cyno CXCL13
T6 sequence: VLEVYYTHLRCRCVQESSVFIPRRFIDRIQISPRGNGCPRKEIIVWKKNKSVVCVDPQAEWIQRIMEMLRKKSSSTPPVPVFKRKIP
As to the kind of experiment: ELISA, coated antigen, chimeric IgG1. How it is done:
as §3

Test [9] has as its target T1, human CXCL13. Briefly: ELISA, huCXCL13 coated on the plate, chimeric IgG1 titrated, OD450. In outline:
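Plates were coated overnight with 100 μl of human CXCL13 at 0.5 μg/ml, then blocked with 200 μl of 5% BSA in PBS. Serial dilutions of IgG1 antibodies were allowed to bind for 30 min at room temperature, and after washing with PBS/T, goat anti-human IgG Fc-HRP was applied for 30 min at room temperature. The EC50 was derived from the antibody titration.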

The target in test [10] is T1, human CXCL13. As to the kind of experiment: cell-based blocking ELISA, CXCL13 to CHO-K1-CXCR5. On the procedure:
This example tested the blocking of the anti-CXCL13 chimeric antibodies to CHO-K1-CXCR5 cells. Briefly, 5×10⁴ CHO-K1-CXCR5 cells were plated in 96-well plate with 100 μl of culture medium and incubated at 37° C. overnight. Cells were fixed with 100 μl of 2% PFA at RT for 1 hr after washing with PBS for 1 time. Samples were blocked with 1% BSA in PBST for 1 hr at RT. Antibodies were serial diluted from 50 μg/ml by 3-fold with 1% BSA/PBST and pre-incubated with equal volume of 0.3 μg/ml human CXCL13 for 30 min at RT. 100 μl of antibody-antigen complex was transferred into each cell wells for 30 min at RT. Samples were washed with 1×PBST for 3 times and 100 μl of 3 μg/ml of human Mab5261 antibody was added into each well to capture human CXCL13 and anti-human Fc-HRP was used to indirectly detect human CXCL13 when it bound to CHO-K1-CXCR5 cells.
Then read at 450 nm. […] Among all clones, 415A3D1, 64C10G1, 1H3A11, 414D10F5, 411A11E9, 21H12D9, 71F4A3, 329F2E1 show completely blocking activity and 408E3F3, 19H7E10, 339A6E7 appeared to be partial blockers.

Test [11] concerns the target T1, human CXCL13. Briefly: SPR Biacore T200. On the procedure: In the second approach, mutations were carried out by multiple libraries including 4 different sub libraries, such as saturated mutation libraries by CDR walking for CDR L1, CDR L3, CDR H3 or CDR L2, CDR H1, CDR H2 and saturated mutation libraries by three aa mutated continuously for CDR H3 or CDR L3. After finishing construction of phage sub libraries, antigen CXCL13 screening followed. Antibodies of these sequences were generated, and affinity testing was performed by Biacore T200. To further optimize the antibodies, the lead clones were then back mutated to its humanized counterpart one aa by one aa. Sequences were generated and synthesized for antibodies. Affinity was tested by Biacore T200.

Test [12] addresses T1, human CXCL13. As to the kind of experiment: SPR Biacore T200. How it is done:
To further optimization of 71F4-B, each Mutations in 71F4A3 useful for improving binding (Kon) were added into 71F4-B, the sequences were listed in Table 28. Antibodies according to these sequences were generated and affinity testing was performed by Biacore T200.
The source holds these as a separate data set.

The target of test [13] is T1, human CXCL13. Briefly: SPR Biacore T200. This is another data set of the same source.

B1: 64C10G1 chimeric Fab (Fab, V domains shown)
VH: EVQLVESGGGLVKPGGSLKLSCAASGFTFSSYAMSWVRQTPEKRLEWVATISDGGSDAYYPDNVKGRFTISRDNAKNNLYLQMSHLKSEDTAMYYCARDYYGSGYEDSPMDYWGQGTSVTVSS
VL: DIQMTQSPSSLSASLGGKVTITCKASQDINKYIAWYQHKPGKGPRLLIHYTSTLQPGIPSRFSGSGSGRDYSFSISNLEPEDFATYYCLQYDNLYTFGGGTKLEIK
notes: Fab; also called 64C10G1 Fab
The term Kd denotes the free concentration of one partner at which half of the binding sites on the other are occupied at equilibrium, for simple one-to-one binding. As usually defined, the koff is the first-order rate constant of dissociation. The term kon denotes the rate constant with which the complex forms. By IC50 is commonly meant the concentration at which inhibition is half-maximal. Usually EC50 stands for the concentration giving half of the maximal effect. Lower therefore signals an effect from little substance. With B1, the dissociation constant (Kd) with human CXCL13 [1] was found to be 0.814 nM; with human CXCL13 [4], 0.178 nM; with human CXCL13 [7], 0.814 nM. Further, the koff with human CXCL13 [1] was 0.00218 s⁻¹; with human CXCL13 [4] it was 0.0005 s⁻¹; with human CXCL13 [7], 0.00218 s⁻¹. For the same molecule, the on-rate (kon) with human CXCL13 [1] was found to be 2.68e+06 M⁻¹ s⁻¹; in the test with human CXCL13 [4] it was 2.81e+06 M⁻¹ s⁻¹; in the test with human CXCL13 [7] it was 2.68e+06 M⁻¹ s⁻¹. This molecule had an IC50 with human CXCL13 [2] of 7.22 nM. The molecule further showed an EC50 with human CXCL13 [3] of 1.71 nM. Further, the binding result with human CXCL13 F20A [5] is given as “no binding (tested: <20% WT binding)”. Moreover, the “Binding reactivity (% WT)” value is 14.8 % WT in the test with human CXCL13 P22A, -3.2 % WT with human CXCL13 F25A, 9.4 % WT in the test with human CXCL13 F20A [6] and -3.3 % WT with human CXCL13 R24A.

B2: 71F4A3 chimeric human IgG1 antibody (antibody, V domains shown)
VH: EVKLLQSGGGLVQPGGSLKLSCAASGIDFSRYWMSWVRRAPGKGLEWIGEINPDSSTINYAPSLKDKFIISRDNAKNTLYLQMSKVRSEDTALYYCARQDDYEYYAMDYWGQGTSVTVSS
VL: DIVMTQSHKSMSTSVGDRVSITCKASQDVNTGVAWYRQKPGQSPKLLIYSASYRYTGVPDRFTGSGSGTDFTFTISSVQAEDLAVYYCQQYYSTPLTFGAGTKLELK
notes: Chimeric human IgG1; also called chimeric 71F4A3
On to B2, for which the results for the EC50 with human CXCL13 [8], with cynomolgus CXCL13 and in the test with human CXCL13 [9] were 0.0381 µg/mL, 0.0814 µg/mL and 0.116 nM, respectively. For the same molecule, in the test with human CXCL13 [10], the IC50 is 3.02 µg/mL.

B3: 71F4-B (antibody, V domains shown)
VH: EVQLVESGGGLVQPGGSLRLSCAASGIDFSRYWMSWVRQAPGKGLEWVAEINPESSTINYAPSLKDRFTISRDNAKNSLYLQMNSLRAEDTAVYYCARQDDYEYYTMDYWGQGTTVTVSS
VL: DIQMTQSPSSLSASVGDRVTITCKVSQDVNTGVAWYQQKPGKAPKLLIYSASYRYTGVPSRFSGSGSGTDFTFTISSLQPEDIATYYCQQYYSTPLTFGGGTKLEIK
notes: also called 71F4A3-B
In the test with human CXCL13 [11], B3 came in with a Kd of 0.195 nM, a koff of 3.57e-05 s⁻¹ and a kon of 183000 M⁻¹ s⁻¹. In addition, in the test with human CXCL13 [12], the Kd turned out to be 0.36 nM, the koff was 6.59e-05 s⁻¹ and the kon was determined as 183000 M⁻¹ s⁻¹. In the test with human CXCL13 [13], this molecule came in with a Kd of less than 1 nM.

For the origin of these results see US20210284724A1 (I MAB BIOPHARMA US, published 2021).
